Experimental data reported in US20060171935A1, “Protecting cell therapy for neurological disorders including Parkinson's disease” (priority 2005, published 2006).

Experiments:
[1] = system: DJ-1 deficient dopamine neurons; experiment: 6-OHDA sensitivity of ES-derived dopamine neurons, 3H-dopamine uptake; assay type: cell-based, murine; conditions: 9 DIV, 72 h exposure
Source text: (A) The SDIA coculture method. DJ-1 knockout or control heterozygous ES cells are cocultured with mouse stromal cells (MS5) in the absence of serum and leukemia inhibitory factor for 18 DIV. (B) DN production was quantified at 18 DIV by 3H-dopamine uptake assay. DJ-1-deficient ES cell cultures were defective relative to heterozygous control cultures. (C-D) Neuron production was quantified by immunohistochemical analysis as a percent of TuJ1-positive colonies that express TH (C) or GABA (D). Quantification of TH and GABA immunostaining was performed on all colonies in each of three independent wells. Colonies were scored as positive if any immunostained cells were present. *p≦0.05. […] (F) Kinetic analysis of DN differentiation in DJ-1-deficient cultures (clone 32, solid square) and heterozygous controls (open circle) as quantified by 3H-dopamine uptake assay. *p≦0.05. […] DNs were quantified by 3H-dopamine uptake assay. Data represent the means±SEM and were analyzed by ANOVA followed by Fisher's post-hoc test. *p≦0.05. […]
In Vivo Assays. […] Cell viability (as a percent of untreated control) was determined by MTT assay in triplicate (Fezoui et al. 2000). […] Reported values represent specific uptake from which non-specific uptake, determined in the presence of mazindol, was subtracted, and normalized for protein content (BCA kit, Pierce).

αSyn [2] = molecular target: T1, αSyn (Homo sapiens, UniProt P37840); experiment: αSyn protofibril formation in vitro; assay type: biochemical; conditions: molar ratio 1:2 (DJ-1: αSyn), 2 h at 55° C.
Method: αSyn protofibril and fibril formation assays were performed essentially as described (Uversky et al.). Briefly, protofibrils were formed by incubation of 200 μM WT synuclein with 100 μM DJ-1 or control chaperone protein in PBS for 2 h at 55° C. Samples were mixed with SDS loading buffer and analyzed by SDS-PAGE and Western blotting using αSyn LB509 antibody (Zymed). Quantitation of high molecular weight αSyn was performed using NIH Image J. Integrated pixel intensity of high molecular weight synuclein for each sample was normalized to monomeric synuclein intensity. For fibril formation, αSyn and chaperone proteins (as described above) were incubated with shaking for 1 wk at 37° C. Fibril formation was assessed by Congo red (Conway et al. 2000b).

αSyn [3] = molecular target: T1, αSyn; experiment: αSyn Congo red-positive fibril formation in vitro; assay type: biochemical; conditions: 200 μM αSyn, proteins 100 μM, 1 wk at 37° C.
Method: αSyn protofibril and fibril formation assays were performed essentially as described (Uversky et al.). […] For fibril formation, αSyn and chaperone proteins (as described above) were incubated with shaking for 1 wk at 37° C. Fibril formation was assessed by Congo red (Conway et al. 2000b).

insulin = experiment: Aggregation suppression of DTT-reduced insulin B chains; assay type: biochemical; conditions: insulin 26 μM, 20 mM DTT, 25° C.
Method: FIG. 22 illustrates that DJ-1 is a redox-dependent molecular chaperone. (A) Aggregation of CS was monitored at 43° C. after addition of either 0.8 μM CS alone (black), or along with 8.0 μM RNase A (purple), 0.5 μM DJ-1 (aqua), 2.0 μM DJ-1 (blue), 4.0 μM DJ-1 (red), or 2.0 μM Hsp27 (green). (B) Aggregation of 0.8 μM CS after 30 min at […] (unfilled bar) is inhibited by 4.0 μM WT DJ-1 (black bar) but not 4.0 μM L166P mutant DJ-1 (gray bar). Data are shown as the mean±SEM and were analyzed by ANOVA with Fisher's post-hoc test. *p<0.05. (C) Aggregation of insulin (26 μM) B chains induced by 20 mM DTT at 25° C. Insulin alone (black) or in the presence of 4.0 μM RNase A (purple), 0.5 μM DJ-1 (aqua), 2.0 μM DJ-1 (blue), 4.0 μM DJ-1 (red), or 2.0 μM Hsp27 (green). […] (gray bar). Further treatment of DTT-reduced DJ-1 with 10 mM H2O2 for 10 min at 4° C. leads to reactivation of CS suppression (hatched bar). Data are shown as the mean±SEM and were analyzed by ANOVA with Fisher's post-hoc test. *p<0.05.
CS aggregation was performed in 40 mM HEPES (pH 7.8), 20 mM potassium hydroxinde, 50 mM potassium chloride, and 10 mM ammonium sulfate, and monitored in a thermostat-controlled fluorescence spectrophotometer with excitation and emission wavelengths at 500 nm and slit widths at 2.5 nm. Insulin aggregation was performed as described (Giasson et al. 2000). […]

cerebellar granule cells = experiment: Parkin overexpression in kainate-treated cerebellar granule cells; assay type: cell-based, mice; conditions: 500 μM for 24 h
Method: Cerebellar granule neurons from P6 mice were purified and transfected essentially as described (Scheiffele et al., Neuroligin expressed in nonneuronal cells triggers presynaptic development in contacting axons. Cell, 101:657-69, 2000). Dissociated cortical neurons from E16.5 mice were prepared and cultured as described (Scheiffele et al., Neuroligin expressed in nonneuronal cells triggers presynaptic development in contacting axons. Cell, 101:657-69, 2000). Primary midbrain cultures were prepared from E13.5 mouse embryos, as described (Hynes et al., Induction of midbrain dopaminergic neurons by Sonic hedgehog. Neuron, 15:35-44, 1995). Cells were treated for 24 h with or without kainate (250 or 500 μM as indicated; Sigma) or MPP^+ (1 or 10 μM as indicated; Sigma), stained for 20 min with 0.5 μg/ml Hoechst 33342 (Sigma), and visualized by fluorescence microscopy. For granule cell assays, at least 100 cells in two 20× fields were scored in duplicate for GFP and/or Hoechst signal. […] Cells were washed, incubated for 1 h at room temperature with appropriately-labeled secondary antibodies, and visualized by fluorescence microscopy. For midbrain culture experiments, DAT-specific immunoreactivity (pixels), and cytoplasmic parkin and cyclin E immunoreactivity (mean pixel density), were quantified in triplicate, across nine fields of view, at 20× using Image software (Scion). […]

citrate synthase (CS) = molecular target: T2, citrate synthase (CS) (Sus scrofa, UniProt P00889); experiment: Suppression of heat-induced aggregation of citrate synthase (chaperone assay); assay type: biochemical; conditions: 0.8 μM CS, 43° C.
T2 construct: purchased Sigma
T2 sequence (P00889 28-464): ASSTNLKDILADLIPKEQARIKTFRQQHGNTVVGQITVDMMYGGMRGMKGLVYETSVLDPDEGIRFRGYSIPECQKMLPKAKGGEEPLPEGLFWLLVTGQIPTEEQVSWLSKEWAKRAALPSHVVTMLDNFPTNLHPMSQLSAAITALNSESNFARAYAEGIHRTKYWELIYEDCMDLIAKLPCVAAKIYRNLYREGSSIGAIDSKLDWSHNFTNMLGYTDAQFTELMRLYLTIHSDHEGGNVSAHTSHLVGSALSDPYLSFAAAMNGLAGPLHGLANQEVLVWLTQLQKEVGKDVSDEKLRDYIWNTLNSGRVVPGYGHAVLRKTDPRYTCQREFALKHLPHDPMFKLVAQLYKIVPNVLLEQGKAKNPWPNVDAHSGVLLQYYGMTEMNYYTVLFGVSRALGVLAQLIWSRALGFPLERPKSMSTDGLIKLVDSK
Method: To test the redox regulation of DJ-1, the inventors assayed chaperone activity in the CS aggregation assay in the presence or absence of the reducing agent DTT. […] (FIG. 22D). […] To further test whether redox regulation might govern DJ-1 chaperone activity, reactivation studies using reduced DJ-1 were performed. DTT-reduced DJ-1 was incubated with H2O2 (10 mM in aggregation buffer for 10 min at 4° C. followed by dialysis against aggregation buffer for 2 h), and subsequently chaperone activity was measured in the CS thermal aggregation assay. […] This was not an indirect effect of residual H2O2 on CS aggregation, as H2O2 treatment of CS increased aggregation (unpublished data).
CS aggregation was performed in 40 mM HEPES (pH 7.8), 20 mM potassium hydroxinde, 50 mM potassium chloride, and 10 mM ammonium sulfate, and monitored in a thermostat-controlled fluorescence spectrophotometer with excitation and emission wavelengths at 500 nm and slit widths at 2.5 nm. Insulin aggregation was performed as described (Giasson et al. 2000). CS, insulin, RNase A, and GST were obtained from Sigma; human Hsp27 was obtained from Stressgen.

NCCc1cc(O)c(O)cc1O [6-OHDA, 6-hydroxydopamine]
sensitivity of DJ-1 deficient dopamine neurons to toxin [1]: increased sensitivity

glutathione S-transferase [GST]
formation of soluble αSyn protofibrils (αSyn [2]): failed to inhibit | formation of Congo red-positive αSyn fibrils (αSyn [3]): did not

Hsp27: well-described small cytoplasmic chaperone, human Hsp27, from Stressgen; positive control [reference compound]
aggregation suppression of reduced insulin (insulin): effectively inhibited | formation of soluble αSyn protofibrils (αSyn [2]): failed to inhibit

C=C(C)[C@H]1CN[C@H](C(=O)O)[C@H]1CC(=O)O [kainate]
effect of toxin on cyclin E in granule cell cultures (cerebellar granule cells): led to the accumulation of cyclin E

B1: RNase A: negative control protein, from Sigma (protein, UniProt P61823 27-150, looked up)
Ribonuclease pancreatic: KETAAAKFERQHMDSSTSAASSSNYCNQMMKSRNLTKDRCKPVNTFVHESLADVQAVCSQKNVACKNGQTNCYQSYSTMSITDCRETGSSKYPNCAYKTTQANKHIIVACEGNPYVPVHFDASV
suppression of heat-induced aggregation of CS (chaperone activity) (citrate synthase (CS)): failed to demonstrate chaperone activity | aggregation suppression of reduced insulin (insulin): neither DJ-1 nor the negative control protein RNase A displayed chaperone activity
